Laboratory results taken from article PMC12316982 (Nature Communications, 2025).

B1: NCS.1.1 (human IgG1) (antibody, V domains shown)
VH: QVQLQESGPRLVKPSETLSLTCSVSGESISSGGYYWTWIRQHPGKGLEWIGNIFDTGSTDYSPSLKTRLTISIDTSKNQFYLRLNSATAADTAVYYCARVGFSLETDRPYYLGLDVWGQGTTVTVSS
VL: DIVMTQSPLSLPVTPGEPASISCRSSQSLLHSNGYTYLDWYLQKPGQSPQLLISFTSNRASGVPDRFSGSGSGTYFTLKISRVEAEDVGVYYCMQAVQTPWTFGQGTKVEIK
B2: NCS.1 (human IgG1) (antibody, V domains shown)
VH: QVQLPESGPRLVKPSETLSLTCSVSGESISSGGYYWTWIRQHPGKGLEWIGNIFDTGSTHYSPSLKTRLTISIDTSKNQFYLRLNSATAADTAVYYCARVGYSLETDRPYYFGLDVWGQGTTVTVSS
VL: DIVMTQSPLSLPVTPGEPASISCRSSQSLLHSNGYTYLDWYLQKPGQSPQLLIYLASNRASGVPDRFSGSGSGTYFTLKISRVEAEDVGVYYCMQAVQTPWTFGQGTKVEIK
B3: NCS.1.3 (human IgG1) (antibody, V domains shown)
VH: QVQLQESGPRLVKPSETLSLTCSVSGESISSGGYYWTWIRQHPGKGLEWIGNIFDTGSTDYSPSLKTRLTISIDTSKNQFYLRLTSATAADTAVYYCARVGFSLETDRPYYLGLDVWGQGTTVTVSS
VL: DIVMTQSPLTLPVTPGEPASISCRSSQSLLHSNGYTYLDWYLQKPGQSPQLLIYFASNRASGVPDRFSGSGSGTYFTLKISRVEAEDVGVYYCMQAVQSPWTFGQGTKVEIK

Biological target: unmodified NA of A/Vietnam/1203/2004 (VN04, H5N1) (Influenza A virus A/Vietnam/1203/2004 …, UniProt Q6DPL2, strain)
Assay: ELISA
Settings: both partners purified

Binder	binding result
B1	binds
B2	binds
B3	binds
